Measurements published in patent publication US20250340643A1 (AstraZeneca / MedImmune, published 2025).
Where two headings read alike, the source gives them in different places.

T1: CTLA4 on the cells of the reporter gene bioassay (human, UniProt P16410 36-223)
T1 sequence (looked up): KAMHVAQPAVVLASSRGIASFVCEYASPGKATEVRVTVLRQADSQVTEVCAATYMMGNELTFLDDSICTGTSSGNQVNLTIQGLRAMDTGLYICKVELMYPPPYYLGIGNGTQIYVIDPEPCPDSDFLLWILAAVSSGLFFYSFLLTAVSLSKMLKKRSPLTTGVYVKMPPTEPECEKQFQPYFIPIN


Key:
[1] = target: T1, CTLA4 on the cells of the reporter gene …; test: cell-based or functional assay
recombinant FcRn = target: T2, recombinant FcRn (UniProt P55899 24-297; P61769 21-119, limits assumed); test: SPR, recombinant FcRn immobilized on the sensor; relative to Reference Standard
T2 construct: also called Neonatal Fc Receptor
T2 sequence (P55899 24-297 limits assumed, form in doubt, chain 1 of 2): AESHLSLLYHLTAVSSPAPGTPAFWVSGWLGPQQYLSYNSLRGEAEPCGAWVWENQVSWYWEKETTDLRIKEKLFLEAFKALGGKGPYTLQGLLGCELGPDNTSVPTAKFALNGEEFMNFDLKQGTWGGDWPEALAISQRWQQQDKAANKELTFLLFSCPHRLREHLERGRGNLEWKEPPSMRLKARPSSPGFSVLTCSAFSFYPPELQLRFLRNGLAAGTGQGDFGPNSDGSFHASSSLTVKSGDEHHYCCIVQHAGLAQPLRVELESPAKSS
T2 sequence (P61769 21-119 limits assumed, form in doubt, chain 2 of 2): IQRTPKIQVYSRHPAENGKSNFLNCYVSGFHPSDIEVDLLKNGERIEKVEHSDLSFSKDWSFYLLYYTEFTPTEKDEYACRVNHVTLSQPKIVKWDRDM
Source text: A surface plasmon resonance binding assay was used to measure FcRn binding. This method is based on the ability of the test sample to bind to recombinant FcRn that has been immobilized on an SPR sensor surface. A reference flow cell was created using the same standard amine coupling procedure without the addition of FcRn.

[2] = target: T1, CTLA4 on the cells of the reporter gene …; test: cell-based or functional assay; remark: listed apart in the source

Row | Binder | Relative Potency (%) [1] | Relative FcRn Binding (%) (recombinant FcRn) | Relative Potency (%) [2]
1 | Tremelimumab, chemical oxidation study (100 ppm H2O2), Control t = 0 (antibody, human IgG2, kappa, oxidation by peptide mapping: Met-256 1.2%, Met-362 0.9%, Met-401 1.4%, Met-432 0.2%) heavy: QVQLVESGGGVVQPGRSLRLSCAASGFTFSSYGMHWVRQAPGKGLEWVAVIWYDGSNKYYADSVKGRFTISRDNSKNTLYLQMNSLRAEDTAVYYCARDPRGATLYYYYYGMDVWGQGTTVTVSSASTKGPSVFPLAPCSRSTSESTAALGCLVKDYFPEPVTVSWNSGALTSGVHTFPAVLQSSGLYSLSSVVTVPSSNFGTQTYTCNVDHKPSNTKVDKTVERKCCVECPPCPAPPVAGPSVFLFPPKPKDTLMISRTPEVTCVVVDVSHEDPEVQFNWYVDGVEVHNAKTKPREEQFNSTFRVVSVLTVVHQDWLNGKEYKCKVSNKGLPAPIEKTISKTKGQPREPQVYTLPPSREEMTKNQVSLTCLVKGFYPSDIAVEWESNGQPENNYKTTPPMLDSDGSFFLYSKLTVDKSRWQQGNVFSCSVMHEALHNHYTQKSLSLSPGK light: not shown | 100% | 89% | 
2 | Tremelimumab incubated with 100 ppm H2O2 for 8 hours (antibody, human IgG2, kappa, oxidation by peptide mapping: Met-256 13.4%, Met-362 3.9%, Met-401 13.3%, Met-432 2.4%) heavy: QVQLVESGGGVVQPGRSLRLSCAASGFTFSSYGMHWVRQAPGKGLEWVAVIWYDGSNKYYADSVKGRFTISRDNSKNTLYLQMNSLRAEDTAVYYCARDPRGATLYYYYYGMDVWGQGTTVTVSSASTKGPSVFPLAPCSRSTSESTAALGCLVKDYFPEPVTVSWNSGALTSGVHTFPAVLQSSGLYSLSSVVTVPSSNFGTQTYTCNVDHKPSNTKVDKTVERKCCVECPPCPAPPVAGPSVFLFPPKPKDTLMISRTPEVTCVVVDVSHEDPEVQFNWYVDGVEVHNAKTKPREEQFNSTFRVVSVLTVVHQDWLNGKEYKCKVSNKGLPAPIEKTISKTKGQPREPQVYTLPPSREEMTKNQVSLTCLVKGFYPSDIAVEWESNGQPENNYKTTPPMLDSDGSFFLYSKLTVDKSRWQQGNVFSCSVMHEALHNHYTQKSLSLSPGK light: not shown | 88% | 93% | 
3 | Tremelimumab incubated with 100 ppm H2O2 for 25 hours (antibody, human IgG2, kappa, oxidation by peptide mapping: Met-256 35.5%, Met-362 9.7%, Met-401 28.7%, Met-432 7.8%) heavy: QVQLVESGGGVVQPGRSLRLSCAASGFTFSSYGMHWVRQAPGKGLEWVAVIWYDGSNKYYADSVKGRFTISRDNSKNTLYLQMNSLRAEDTAVYYCARDPRGATLYYYYYGMDVWGQGTTVTVSSASTKGPSVFPLAPCSRSTSESTAALGCLVKDYFPEPVTVSWNSGALTSGVHTFPAVLQSSGLYSLSSVVTVPSSNFGTQTYTCNVDHKPSNTKVDKTVERKCCVECPPCPAPPVAGPSVFLFPPKPKDTLMISRTPEVTCVVVDVSHEDPEVQFNWYVDGVEVHNAKTKPREEQFNSTFRVVSVLTVVHQDWLNGKEYKCKVSNKGLPAPIEKTISKTKGQPREPQVYTLPPSREEMTKNQVSLTCLVKGFYPSDIAVEWESNGQPENNYKTTPPMLDSDGSFFLYSKLTVDKSRWQQGNVFSCSVMHEALHNHYTQKSLSLSPGK light: not shown | 83% | 91% | 
4 | Tremelimumab incubated with 100 ppm H2O2 for 2 days (antibody, human IgG2, kappa, oxidation by peptide mapping: Met-256 55.8%, Met-362 17.8%, Met-401 44.6%, Met-432 20.7%) heavy: QVQLVESGGGVVQPGRSLRLSCAASGFTFSSYGMHWVRQAPGKGLEWVAVIWYDGSNKYYADSVKGRFTISRDNSKNTLYLQMNSLRAEDTAVYYCARDPRGATLYYYYYGMDVWGQGTTVTVSSASTKGPSVFPLAPCSRSTSESTAALGCLVKDYFPEPVTVSWNSGALTSGVHTFPAVLQSSGLYSLSSVVTVPSSNFGTQTYTCNVDHKPSNTKVDKTVERKCCVECPPCPAPPVAGPSVFLFPPKPKDTLMISRTPEVTCVVVDVSHEDPEVQFNWYVDGVEVHNAKTKPREEQFNSTFRVVSVLTVVHQDWLNGKEYKCKVSNKGLPAPIEKTISKTKGQPREPQVYTLPPSREEMTKNQVSLTCLVKGFYPSDIAVEWESNGQPENNYKTTPPMLDSDGSFFLYSKLTVDKSRWQQGNVFSCSVMHEALHNHYTQKSLSLSPGK light: not shown | 88% | 37% | 
5 | Tremelimumab incubated in human serum at 37° C., week 4 (antibody, human IgG2, kappa, V domains shown, Asn-30 deamidated in 34.8% (peptide mapping)) VH: QVQLVESGGGVVQPGRSLRLSCAASGFTFSSYGMHWVRQAPGKGLEWVAVIWYDGSNKYYADSVKGRFTISRDNSKNTLYLQMNSLRAEDTAVYYCARDPRGATLYYYYYGMDVWGQGTTVTVSS VL: DIQMTQSPSSLSASVGDRVTITCRASQSINSYLDWYQQKPGKAPKLLIYAASSLQSGVPSRFSGSGSGTDFTLTISSLQPEDFATYYCQQYYSTPFTFGPGTKVEIKR |  |  | 76%
6 | Tremelimumab incubated in human serum at 37° C., week 5 (antibody, human IgG2, kappa, V domains shown, Asn-30 deamidated in 37.7% (peptide mapping)) VH: QVQLVESGGGVVQPGRSLRLSCAASGFTFSSYGMHWVRQAPGKGLEWVAVIWYDGSNKYYADSVKGRFTISRDNSKNTLYLQMNSLRAEDTAVYYCARDPRGATLYYYYYGMDVWGQGTTVTVSS VL: DIQMTQSPSSLSASVGDRVTITCRASQSINSYLDWYQQKPGKAPKLLIYAASSLQSGVPSRFSGSGSGTDFTLTISSLQPEDFATYYCQQYYSTPFTFGPGTKVEIKR |  |  | 80%
7 | Tremelimumab incubated in human serum at 37° C., week 0 (antibody, human IgG2, kappa, V domains shown, Asn-30 deamidated in 3.4% (peptide mapping)) VH: QVQLVESGGGVVQPGRSLRLSCAASGFTFSSYGMHWVRQAPGKGLEWVAVIWYDGSNKYYADSVKGRFTISRDNSKNTLYLQMNSLRAEDTAVYYCARDPRGATLYYYYYGMDVWGQGTTVTVSS VL: DIQMTQSPSSLSASVGDRVTITCRASQSINSYLDWYQQKPGKAPKLLIYAASSLQSGVPSRFSGSGSGTDFTLTISSLQPEDFATYYCQQYYSTPFTFGPGTKVEIKR |  |  | 106%
8 | Tremelimumab incubated in PBS at 37° C., week 1 (antibody, human IgG2, kappa, V domains shown, Asn-30 deamidated in 8.8% (peptide mapping)) VH: QVQLVESGGGVVQPGRSLRLSCAASGFTFSSYGMHWVRQAPGKGLEWVAVIWYDGSNKYYADSVKGRFTISRDNSKNTLYLQMNSLRAEDTAVYYCARDPRGATLYYYYYGMDVWGQGTTVTVSS VL: DIQMTQSPSSLSASVGDRVTITCRASQSINSYLDWYQQKPGKAPKLLIYAASSLQSGVPSRFSGSGSGTDFTLTISSLQPEDFATYYCQQYYSTPFTFGPGTKVEIKR |  |  | 96%
9 | Tremelimumab incubated in PBS at 37° C., week 4 (antibody, human IgG2, kappa, V domains shown, Asn-30 deamidated in 37.7% (peptide mapping)) VH: QVQLVESGGGVVQPGRSLRLSCAASGFTFSSYGMHWVRQAPGKGLEWVAVIWYDGSNKYYADSVKGRFTISRDNSKNTLYLQMNSLRAEDTAVYYCARDPRGATLYYYYYGMDVWGQGTTVTVSS VL: DIQMTQSPSSLSASVGDRVTITCRASQSINSYLDWYQQKPGKAPKLLIYAASSLQSGVPSRFSGSGSGTDFTLTISSLQPEDFATYYCQQYYSTPFTFGPGTKVEIKR |  |  | 76%
10 | Tremelimumab incubated in PBS at 37° C., week 2 (antibody, human IgG2, kappa, V domains shown, Asn-30 deamidated in 18.5% (peptide mapping)) VH: QVQLVESGGGVVQPGRSLRLSCAASGFTFSSYGMHWVRQAPGKGLEWVAVIWYDGSNKYYADSVKGRFTISRDNSKNTLYLQMNSLRAEDTAVYYCARDPRGATLYYYYYGMDVWGQGTTVTVSS VL: DIQMTQSPSSLSASVGDRVTITCRASQSINSYLDWYQQKPGKAPKLLIYAASSLQSGVPSRFSGSGSGTDFTLTISSLQPEDFATYYCQQYYSTPFTFGPGTKVEIKR |  |  | 83%
11 | Tremelimumab incubated in human serum at 37° C., week 3 (antibody, human IgG2, kappa, V domains shown, Asn-30 deamidated in 33.9% (peptide mapping)) VH: QVQLVESGGGVVQPGRSLRLSCAASGFTFSSYGMHWVRQAPGKGLEWVAVIWYDGSNKYYADSVKGRFTISRDNSKNTLYLQMNSLRAEDTAVYYCARDPRGATLYYYYYGMDVWGQGTTVTVSS VL: DIQMTQSPSSLSASVGDRVTITCRASQSINSYLDWYQQKPGKAPKLLIYAASSLQSGVPSRFSGSGSGTDFTLTISSLQPEDFATYYCQQYYSTPFTFGPGTKVEIKR |  |  | 82%
12 | Tremelimumab incubated in PBS at 37° C., week 3 (antibody, human IgG2, kappa, V domains shown, Asn-30 deamidated in 27.0% (peptide mapping)) VH: QVQLVESGGGVVQPGRSLRLSCAASGFTFSSYGMHWVRQAPGKGLEWVAVIWYDGSNKYYADSVKGRFTISRDNSKNTLYLQMNSLRAEDTAVYYCARDPRGATLYYYYYGMDVWGQGTTVTVSS VL: DIQMTQSPSSLSASVGDRVTITCRASQSINSYLDWYQQKPGKAPKLLIYAASSLQSGVPSRFSGSGSGTDFTLTISSLQPEDFATYYCQQYYSTPFTFGPGTKVEIKR |  |  | 93%
13 | Tremelimumab incubated in human serum at 37° C., week 2 (antibody, human IgG2, kappa, V domains shown, Asn-30 deamidated in 22.9% (peptide mapping)) VH: QVQLVESGGGVVQPGRSLRLSCAASGFTFSSYGMHWVRQAPGKGLEWVAVIWYDGSNKYYADSVKGRFTISRDNSKNTLYLQMNSLRAEDTAVYYCARDPRGATLYYYYYGMDVWGQGTTVTVSS VL: DIQMTQSPSSLSASVGDRVTITCRASQSINSYLDWYQQKPGKAPKLLIYAASSLQSGVPSRFSGSGSGTDFTLTISSLQPEDFATYYCQQYYSTPFTFGPGTKVEIKR |  |  | 91%
14 | Tremelimumab incubated in PBS at 37° C., week 5 (antibody, human IgG2, kappa, V domains shown, Asn-30 deamidated in 44.7% (peptide mapping)) VH: QVQLVESGGGVVQPGRSLRLSCAASGFTFSSYGMHWVRQAPGKGLEWVAVIWYDGSNKYYADSVKGRFTISRDNSKNTLYLQMNSLRAEDTAVYYCARDPRGATLYYYYYGMDVWGQGTTVTVSS VL: DIQMTQSPSSLSASVGDRVTITCRASQSINSYLDWYQQKPGKAPKLLIYAASSLQSGVPSRFSGSGSGTDFTLTISSLQPEDFATYYCQQYYSTPFTFGPGTKVEIKR |  |  | 76%
15 | Tremelimumab incubated in PBS at 37° C., week 0 (antibody, human IgG2, kappa, V domains shown, Asn-30 deamidated in 2.2% (peptide mapping)) VH: QVQLVESGGGVVQPGRSLRLSCAASGFTFSSYGMHWVRQAPGKGLEWVAVIWYDGSNKYYADSVKGRFTISRDNSKNTLYLQMNSLRAEDTAVYYCARDPRGATLYYYYYGMDVWGQGTTVTVSS VL: DIQMTQSPSSLSASVGDRVTITCRASQSINSYLDWYQQKPGKAPKLLIYAASSLQSGVPSRFSGSGSGTDFTLTISSLQPEDFATYYCQQYYSTPFTFGPGTKVEIKR |  |  | 92%
16 | Tremelimumab incubated in human serum at 37° C., week 1 (antibody, human IgG2, kappa, V domains shown, Asn-30 deamidated in 11.1% (peptide mapping)) VH: QVQLVESGGGVVQPGRSLRLSCAASGFTFSSYGMHWVRQAPGKGLEWVAVIWYDGSNKYYADSVKGRFTISRDNSKNTLYLQMNSLRAEDTAVYYCARDPRGATLYYYYYGMDVWGQGTTVTVSS VL: DIQMTQSPSSLSASVGDRVTITCRASQSINSYLDWYQQKPGKAPKLLIYAASSLQSGVPSRFSGSGSGTDFTLTISSLQPEDFATYYCQQYYSTPFTFGPGTKVEIKR |  |  | 98%
